# Results reported in PMC4549619, “Engineering catechol 1, 2-dioxygenase by design for improving the performance of the cis, cis-muconic acid synthetic pathway in Escherichia coli” (Scientific Reports, 2015).
# Experiments:
# [1] = system: Oc1ccccc1O; experiment: initial rates, OD260 product formation, Michaelis-Menten nonlinear fit; format: biochemical, Acinetobacter baylyi; settings: 100 mM potassium phosphate pH 7.4, 25 °C, catechol 0-200 μM
# Text: (§1) initial rates, OD260 product formation, Michaelis-Menten nonlinear fit on catechol 1,2-dioxygenase (CatA)
# [2] = substrate: Oc1ccccc1O; experiment: as above; format: biochemical, Acinetobacter baylyi; settings: 100 mM potassium phosphate pH 7.4, 25 °C, catechol 0-200 μM; remark: listed apart in the source
# Text: as §1
molecule,measurement,setting,value
"catechol 1,2-dioxygenase (CatA) (Acinetobacter baylyi ADP1; L73F)",Km,[1],151.09 ± 10.299 µM
same,kcat,[1],5.65 ± 0.163 s⁻¹
"catechol 1,2-dioxygenase (CatA) (Acinetobacter baylyi ADP1; L73F/P76A)",Km,[1],45.96 ± 7.691 µM
same,kcat,[1],39.5 ± 0.221 s⁻¹
"catechol 1,2-dioxygenase (CatA) (Acinetobacter baylyi ADP1; P76A)",Km,[1],65.91 ± 7.753 µM
same,kcat,[1],46.56 ± 0.201 s⁻¹
"catechol 1,2-dioxygenase (CatA) (Acinetobacter baylyi ADP1) (protein) MEVKIFNTQDVQDFLRVASGLEQEGGNPRVKQIIHRVLSDLYKAIEDLNITSDEYWAGVAYLNQLGANQEAGLLSPGLGFDHYLDMRMDAEDAALGIENATPRTIEGPLYVAGAPESVGYARMDDGSDPNGHTLILHGTIFDADGKPLPNAKVEIWHANTKGFYSHFDPTGEQQAFNMRRSIITDENGQYRVRTILPAGYGCPPEGPTQQLLNQLGRHGNRPAHIHYFVSADGHRKLTTQINVAGDPYTYDDFAYATREGLVVDAVEHTDPEAIKANDVEGPFAEMVFDLKLTRLVDGVDNQVVDRPRLAV",Km,[2],7.88 ± 1.239 µM
same,kcat,[2],7.86 ± 0.248 s⁻¹
